Values of other authors in patent US20240424090A1, “COMPOSITIONS AND METHODS FOR USE IN IMMUNOTHERAPY” (INSTITUT CURIE, priority 2021, published 2024).

Columns and labels:
FCGRIIA = target: T1, FCGRIIA (Homo sapiens, UniProt P12318)
T1 sequence (P12318 34-317): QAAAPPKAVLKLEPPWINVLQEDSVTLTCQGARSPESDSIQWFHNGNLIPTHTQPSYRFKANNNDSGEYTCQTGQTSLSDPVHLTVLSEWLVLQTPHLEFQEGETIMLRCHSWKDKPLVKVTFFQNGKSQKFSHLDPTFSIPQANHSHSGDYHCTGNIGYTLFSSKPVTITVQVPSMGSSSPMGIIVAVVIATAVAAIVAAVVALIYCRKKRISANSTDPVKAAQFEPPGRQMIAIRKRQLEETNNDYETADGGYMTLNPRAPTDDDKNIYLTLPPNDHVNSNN

FCGRIIIA = FCGRIIIA (Homo sapiens, UniProt P08637)
Chain of FCGRIIIA (P08637 17-254): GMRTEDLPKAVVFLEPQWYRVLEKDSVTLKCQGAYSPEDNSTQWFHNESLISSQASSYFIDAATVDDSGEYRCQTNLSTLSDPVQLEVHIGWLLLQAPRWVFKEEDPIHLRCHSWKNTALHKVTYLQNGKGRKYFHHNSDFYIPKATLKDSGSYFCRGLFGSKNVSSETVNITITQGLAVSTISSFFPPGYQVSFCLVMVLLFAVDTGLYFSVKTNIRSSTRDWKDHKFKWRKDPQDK

Tremelimumab: IgG2 anti-CTLA-4 antibody
binding to FCGRIIA (FCGRIIA): binds well
binding to FCGRIIIA (FCGRIIIA): not
